In US20090305399A1:
Where two headings read alike, the source gives them in different places. Ends that are not written are not given here.

Tests used:
Test in all cases: cell-based or functional assay
[1] = molecular target: human Kv1.3 channel (human) (UniProt P22001)
[2] = molecular target: human Kv1.1 channel (human) (UniProt Q09470)
[3] = molecular target: human Kv1.3 channel (human) (UniProt P22001); remark: listed apart in the source

Sequence of human Kv1.3 channel (human) (P22001 whole entry): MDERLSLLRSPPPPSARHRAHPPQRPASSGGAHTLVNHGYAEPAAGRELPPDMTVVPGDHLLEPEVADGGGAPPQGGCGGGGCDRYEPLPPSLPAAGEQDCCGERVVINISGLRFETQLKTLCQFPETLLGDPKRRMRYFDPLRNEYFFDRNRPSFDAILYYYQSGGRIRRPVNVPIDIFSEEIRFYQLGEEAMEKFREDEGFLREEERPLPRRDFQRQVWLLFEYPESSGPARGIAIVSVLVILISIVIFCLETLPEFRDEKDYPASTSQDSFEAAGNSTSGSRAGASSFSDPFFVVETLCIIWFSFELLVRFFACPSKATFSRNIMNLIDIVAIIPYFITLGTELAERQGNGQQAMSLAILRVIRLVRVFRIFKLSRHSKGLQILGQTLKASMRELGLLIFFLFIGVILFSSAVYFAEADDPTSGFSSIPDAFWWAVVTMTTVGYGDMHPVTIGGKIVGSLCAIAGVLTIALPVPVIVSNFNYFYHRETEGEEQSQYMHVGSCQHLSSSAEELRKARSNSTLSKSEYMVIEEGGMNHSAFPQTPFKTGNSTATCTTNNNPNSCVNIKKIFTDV
Sequence of human Kv1.1 channel (human) (Q09470 whole entry): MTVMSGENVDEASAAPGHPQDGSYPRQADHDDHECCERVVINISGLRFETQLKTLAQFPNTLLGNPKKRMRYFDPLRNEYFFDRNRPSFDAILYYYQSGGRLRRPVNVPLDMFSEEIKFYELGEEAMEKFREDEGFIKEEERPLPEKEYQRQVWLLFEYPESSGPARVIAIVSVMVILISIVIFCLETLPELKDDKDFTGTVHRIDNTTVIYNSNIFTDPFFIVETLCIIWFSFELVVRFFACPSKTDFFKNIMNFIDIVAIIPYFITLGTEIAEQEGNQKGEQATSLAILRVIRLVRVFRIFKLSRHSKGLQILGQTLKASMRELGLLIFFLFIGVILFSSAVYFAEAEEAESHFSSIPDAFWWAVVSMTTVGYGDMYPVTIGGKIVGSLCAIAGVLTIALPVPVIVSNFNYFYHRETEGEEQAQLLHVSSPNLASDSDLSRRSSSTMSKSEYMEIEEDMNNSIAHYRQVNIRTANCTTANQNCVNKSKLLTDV

Molecule: 20k PEG-OSK1[Ala29, 1Nal34] (peptide)
- WB/IFNg IC50 (human whole blood IFNg response) [1]: 0.081 nM
- WB/IL-2 IC50 (human whole blood IL-2 response) [1]: 0.049 nM

Molecule: 20k PEG-ShK (peptide)
- WB/IFNg IC50 (human whole blood IFNg response) [1]: 0.065 nM
- WB/IL-2 IC50 (human whole blood IL-2 response) [1]: 0.046 nM

Molecule: CHO-derived Fc-L10-ShK[2-35] (Fc fusion)
- IC50 of block of outward potassium current, whole cell patch clamp [1]: 115 pM

Molecule: E. coli-derived Fc-L-OSK1 (Fc fusion)
- Kv1.3 IC50 by WCVC (nM), HEK293/Kv1.3 cells [1]: 3.2 nM

Molecule: E. coli-derived Fc-L-ShK[1-35] (Fc fusion)
- Kv1.3 IC50 by WCVC (nM), HEK293/Kv1.3 cells [1]: 1.4 nM

Molecule: E. coli-derived Fc-L-ShK[2-35] (Fc fusion)
- Kv1.3 IC50 by IWQ (nM), CHO/Kv1.3 cells [1]: 2.8 nM
- Kv1.3 IC50 by WCVC (nM), HEK293/Kv1.3 cells [1]: 1.3 nM

Molecule: E. coli-derived ShK[2-35]-L-Fc (Fc fusion)
- Kv1.3 IC50 by IWQ (nM), CHO/Kv1.3 cells [1]: 4.9 nM

Molecule: E. coli-derived Shk[1-35]-L-Fc (Fc fusion)
- Kv1.3 IC50 by IWQ (nM), CHO/Kv1.3 cells [1]: 2.4 nM

Molecule: Fc-L5-ShK[2-35] (Fc fusion)
- IC50 of block of outward potassium current, whole cell patch clamp [1]: 100 pM

Molecule: Fc-L25-ShK[2-35] (Fc fusion)
- IC50, whole cell patch clamp on HEK293/Kv1.3 cells [1]: 150 pM

Molecule: GGGGS-Osk1 (peptide)
- WB/IFNg IC50 (human whole blood IFNg response) [1]: 2.2 nM
- WB/IL-2 IC50 (human whole blood IL-2 response) [1]: 1.36 nM

Molecule: OSK1 (wild-type) (peptide)
- Kv1.1 IC50, whole cell patch clamp ePhys [2]: 202 pM
- Kv1.3 IC50, whole cell patch clamp ePhys [1]: 39 pM
- Kv1.3 Selectivity (=Kv1.1/Kv.3 IC50) [1]: 5 fold

Molecule: OSK1 analogue E16K, K20D (peptide)
- WB/IFNg IC50 (human whole blood IFNg response) [1]: 1.32 nM
- WB/IL-2 IC50 (human whole blood IL-2 response) [1]: 1.58 nM

Molecule: PEG-Fc-L10-OSK1, Pool # 2 (Fc fusion)
- IC50 Sustained [1]: 0.332 nM

Molecule: PEG-Fc-L10-OSK1, Pool # 3 (Fc fusion)
- IC50 Sustained [1]: 0.256 nM

Molecule: PEG-Fc-L10-SHK(2-35), Pool # 2 (Fc fusion)
- IC50 Sustained [1]: 0.158 nM

Molecule: PEG-Fc-L10-SHK(2-35), Pool # 3 (Fc fusion)
- IC50 Sustained [1]: 0.175 nM

Molecule: synthetic OSK1 toxin peptide
- IC50 of block of outward potassium current, whole cell patch clamp [1]: 39 pM

Molecule: SCIDTIPKSRCTAFQCKHSMKYRLSFCRKTCGTC (not fully specified; ends and bridges not checked) [synthetic ShK[2-35]]
- IC50 of block of outward potassium current, whole cell patch clamp [3]: 49 pM
